Laboratory results reported in paper PMC9241938.
pKd: −log10 of the molar value.

Legend:
[1] = tested on: RpaB (Synechocystis sp. PCC 6803?); assay: EMSA; conditions: EMSA: 12 mM HEPES, 4 mM Tris, 12 mM KCl, 1 mM EDTA, 1 mM EGTA, 12% glycerol, 1 ug poly(dIdC); 3% agarose, 0.5x TBE; pH 8.2 or 5 tested; probe 3.85 pmol …
[2] = biological target: cyAbrB1 (Sll0359), N-terminally 6*His-tagged recombinant protein (Synechocystis sp. PCC 6803); assay: native gel or EMSA; native SDS-PAGE (NSDS-PAGE) of the purified recombinant protein; native glycine polyacrylamide gel (15%, SDS omitted), running buffer 50 mM Tris-HCl, 200 mM glycine, 0.0375% SDS, pH 7.3, 4°C

| Substance | pKd [1] | stoichiometry N [2] |
| --- | --- | --- |
| TTTGCCCAATTTGACAATATATTAAGAAATCCTCATCTAACCTGTTTTTCATTGGATAATTAAAACAAGAGGAAAGATCAGGGGGCAGGAAAATAAATTACCTAATACCTAGTCCTGGTTGATAAAACCAGAGGCAGAAAACCTCCCCGTTTTCTCAAACTTGCCCAAAAGACAACTGTTGAGTTTCCCCCATTGGGACGGAGGTTATG (double strand) [PatpT66-5'UTR] | 5.25 | – |
| cyAbrB1 (Sll0359), N-terminally 6*His-tagged recombinant protein (natural protein) | – | 2 |
